# Measured values from patent publication US9353390B2, “Genetically engineered microbes and methods for producing 4-hydroxycoumarin” (University of Georgia Research Foundation, Inc., priority 2013, dated 2016).
# Values joined by “and” are separate entries in the source; they are usually repeats but may differ in a detail not shown here. Equal values may be shown once.
# T1: EntC, isochorismate synthase from E. coli MG1655 (purified, N-terminal His tag) (Escherichia coli, UniProt P0AEJ2)
# T1 sequence (P0AEJ2 1-391): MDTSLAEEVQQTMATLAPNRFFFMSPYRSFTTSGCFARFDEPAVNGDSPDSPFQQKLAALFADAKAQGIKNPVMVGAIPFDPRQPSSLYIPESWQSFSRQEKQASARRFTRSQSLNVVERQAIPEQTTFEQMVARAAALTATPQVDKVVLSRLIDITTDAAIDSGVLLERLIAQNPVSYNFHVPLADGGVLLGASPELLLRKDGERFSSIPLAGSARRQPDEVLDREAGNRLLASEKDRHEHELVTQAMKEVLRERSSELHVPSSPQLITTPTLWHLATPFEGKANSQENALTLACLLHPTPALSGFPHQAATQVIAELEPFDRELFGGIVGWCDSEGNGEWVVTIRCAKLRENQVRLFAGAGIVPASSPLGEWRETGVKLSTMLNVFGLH
# T2: MenF, isochorismate synthase from E. coli MG1655 (purified, N-terminal His tag) (Escherichia coli, UniProt P38051)
# T2 sequence (P38051 1-431): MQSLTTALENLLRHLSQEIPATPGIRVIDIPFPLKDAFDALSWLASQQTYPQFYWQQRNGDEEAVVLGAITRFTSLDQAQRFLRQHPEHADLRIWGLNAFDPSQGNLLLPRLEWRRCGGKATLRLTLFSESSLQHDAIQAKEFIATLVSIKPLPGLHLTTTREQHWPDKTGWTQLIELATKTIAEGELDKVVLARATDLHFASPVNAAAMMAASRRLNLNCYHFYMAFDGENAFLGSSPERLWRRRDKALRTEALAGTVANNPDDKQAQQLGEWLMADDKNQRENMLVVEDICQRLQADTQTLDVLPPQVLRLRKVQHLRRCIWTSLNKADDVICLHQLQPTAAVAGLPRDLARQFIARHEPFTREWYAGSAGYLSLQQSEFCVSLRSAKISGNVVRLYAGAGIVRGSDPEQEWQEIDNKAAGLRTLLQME
# Key:
# [1] = target: T3, PchA, isochorismate synthase from Pseudomonas aeruginosa PAO1 (purified, N-terminal His tag) (Pseudomonas aeruginosa, UniProt Q51508); type: biochemical; conditions: chorismic acid, pH 7.5, 30° C., mean ± s.d., n = 2
# T3 construct: coupled with PaPchB
# Experimental: (§1) Kinetic parameters of EntC (A), MenF (B), and PchA (C). The Km and Vmax were generated with OriginPro8 through non-linear regression of the Michaelis-Menten equation. […] All data points are reported as mean±s.d. from two independent experiments (n=2). Error bars are defined as s.d.
# (§2) The kinetic parameters of the ICSs: EntC, MenF, and PchA were determined using coupled assays (Payne et al. Org. Biomol. Chem. 7, 2421-2429 (2009)). […] The reactions lasted 1 min for EntC, and 5 min for MenF and PchA, respectively, and then were terminated by acidification with 20 μL of HCl (20%). […] The kinetic parameters were estimated by using OriginPro8 through non-linear regression of the Michaelis-Menten equation.
# [2] = target: T1, EntC, isochorismate synthase from E. coli MG1655 (purified, N-terminal His tag); test: ICS coupled enzyme assay, EntC (with PaPchB, salicylate accumulation by HPLC); conditions: chorismic acid, pH 7.5, 30° C., 0.1 μM enzyme, mean ± s.d., n = 2
# Experimental: as §1, §2
# [3] = target: T2, MenF, isochorismate synthase from E. coli MG1655 (purified, N-terminal His tag); test: ICS coupled enzyme assay, MenF (with PaPchB, salicylate accumulation by HPLC); conditions: chorismic acid, pH 7.5, 30° C., 0.1 μM enzyme, mean ± s.d., n = 2
# Experimental: as §1, §2
# [4] = test system: O=C(O)c1ccccc1O; test: purified protein, by the assay type; conditions: other: MdpB2, salicylate, pH 7.5, 30° C., mean ± s.d., n = 2
# Experimental: The Km and Vmax values were estimated with OriginPro8 through non-linear regression of the Michaelis-Menten equation. […] All data points are reported as mean±s.d. from two independent experiments (n=2). Error bars are defined as s.d.
# The obtained transformants were pre-inoculated in Luria-Bertani (LB) medium containing 100 μg/ml of ampicillin and grown aerobically at 37° C. overnight. Next day, the pre-inoculums were transferred into 50 ml of fresh LB medium at a volume ratio of 1:100. The cultures were left to grow at 37° C. till the OD600 values reached 0.6-0.8 and then induced with 1.0 mM IPTG. Protein expression was conducted at 30° C. for another 5 h. […] The BCA kit (Pierce Chemicals) was used to estimate protein concentrations. The SCL enzyme assays were performed according to the method described by Ishiyama et al. with modifications (Ishiyama et al. Appl. Environ. Microbiol. 70, 1297-1306 (2004)).
# [5] = test system: conversion of salicylate to 4HC; test: In vitro complementation assay, salicylate to 4HC in crude extract of E. coli/pZE-EPBS; conditions: purified enzyme supplemented into crude extract with required cofactors; crude extract alone 0.18 mg/L/h
# Experimental: The E. coli strain carrying the plasmid pZE-EPBS was pre-inoculated into 3 ml LB liquid medium containing 100 μg/ml of ampicillin and grown at 37° C. overnight with shaking at 300 rpm. In the following day, 1 ml of the preinoculum was added to 50 ml of fresh M9Y medium. The culture was left to grow at 37° C. till the OD600 value reached around 0.6 and then induced with 0.5 mM IPTG. The expression of the pathway enzymes was conducted at 30° C. for another 5 hours. The cells were harvested and re-suspended in 2 ml of Tris-HCl buffer (100 mM, pH=7.5), and then lysed by French Press. The soluble fraction was collected by ultra-centrifugation and used as the crude enzyme extract for the complementation assay. […] After 30 min reaction, 100 μl of malonyl-CoA (2 mM) and 50 μl of crude extract with/without purified BIS3 (20 μl) were supplemented into the reaction system. The reactions were finally terminated in another 0.5-2 h by acidification.
# [6] = substrate: C=C(O[C@@H]1C=C(C(=O)O)C=C[C@H]1O)C(=O)O; test: purified protein, by the assay type; conditions: chorismic acid, pH 7.5, 30° C., mean ± s.d., n = 2
# Experimental: as §1, §2
# T3 sequence (Q51508 whole entry): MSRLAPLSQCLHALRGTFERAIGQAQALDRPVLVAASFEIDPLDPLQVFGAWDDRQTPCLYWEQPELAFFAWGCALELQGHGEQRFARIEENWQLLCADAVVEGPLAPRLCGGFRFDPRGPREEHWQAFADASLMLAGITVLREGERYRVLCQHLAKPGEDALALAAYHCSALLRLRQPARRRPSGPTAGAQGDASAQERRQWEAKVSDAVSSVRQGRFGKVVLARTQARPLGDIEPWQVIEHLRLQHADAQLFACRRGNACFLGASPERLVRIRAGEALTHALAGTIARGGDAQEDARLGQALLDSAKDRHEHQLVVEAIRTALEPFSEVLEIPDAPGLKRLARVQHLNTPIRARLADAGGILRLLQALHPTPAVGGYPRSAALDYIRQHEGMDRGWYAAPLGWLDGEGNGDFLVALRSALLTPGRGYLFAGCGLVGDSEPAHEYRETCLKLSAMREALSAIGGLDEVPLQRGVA
molecule,measurement,setting,value
C=C(O[C@@H]1C=C(C(=O)O)C=C[C@H]1O)C(=O)O [chorismic acid],kcat,[1]; 0.1 μM enzyme,0.20 S^−1 and 0.20 ± 0.01 S^−1
same,Km,[1],3.69 ± 0.53 µM
same,kcat,[2],2.12 S^−1 and 2.12 ± 0.07 S^−1
same,kcat,[3],0.13 S^−1 and 0.13 ± 0.01 S^−1
"MdpB2, salicylate:CoA ligase from Actinomadura madurae ATCC39144 (purified, N-terminal His tag) (Actinomadura madurae)",Km,[4],8.53 ± 0.94 µM
same,kcat,[4],1.18 ± 0.03 s⁻¹
same,kcat/Km,[4],138000 M⁻¹ s⁻¹
"BIS3: Biphenyl synthase from Sorbus aucuparia, 4HC-forming enzyme (protein, UniProt D2DRC5 1-388, looked up) 4-hydroxycoumarin synthase 2: MAPVVKNEPQHAKILAIGTANPPNVFHQKDYPDFLFRVTKNEHRTDLREKFDRICEKSRTKKRYLHLTEEMLKANPNIYTYGAPSLNVRQDICNIEVPKLGQEASLKAIKEWGQPISKITHLIFCTASCVDMPGCDFQLIKLLGLDPSVTRTMIYEAGCYAGATVLRMAKDFAENNKGARVLVVCAEITTVFFHGLTDTHLDILVGQALFADGASAVIVGANPEPEIERPLFEIVACRQTILPNSEHGVVANIREMGFNYYLSGDVPKFVGGNVVDFMTKTFEKVDGKNKDWNSLFFSVHPGGPAIVDQVEEKLGLKEGKLRATRHVLSEYGNMGAPTVHFILDEMRNKSIEEGKTTTGEGLEWGVVIGIGPGLTVETAVLRSEFITY",rate of conversion of salicylate to 4HC,[5],7.83 mg/L/h
"MenF, isochorismate synthase from E. coli MG1655 (purified, N-terminal His tag) (Escherichia coli K-12) (protein) MQSLTTALENLLRHLSQEIPATPGIRVIDIPFPLKDAFDALSWLASQQTYPQFYWQQRNGDEEAVVLGAITRFTSLDQAQRFLRQHPEHADLRIWGLNAFDPSQGNLLLPRLEWRRCGGKATLRLTLFSESSLQHDAIQAKEFIATLVSIKPLPGLHLTTTREQHWPDKTGWTQLIELATKTIAEGELDKVVLARATDLHFASPVNAAAMMAASRRLNLNCYHFYMAFDGENAFLGSSPERLWRRRDKALRTEALAGTVANNPDDKQAQQLGEWLMADDKNQRENMLVVEDICQRLQADTQTLDVLPPQVLRLRKVQHLRRCIWTSLNKADDVICLHQLQPTAAVAGLPRDLARQFIARHEPFTREWYAGSAGYLSLQQSEFCVSLRSAKISGNVVRLYAGAGIVRGSDPEQEWQEIDNKAAGLRTLLQME",Km,[6]; other: MenF,6.75 ± 2.99 µM
"EntC, isochorismate synthase from E. coli MG1655 (purified, N-terminal His tag) (Escherichia coli K-12) (protein) MDTSLAEEVQQTMATLAPNRFFFMSPYRSFTTSGCFARFDEPAVNGDSPDSPFQQKLAALFADAKAQGIKNPVMVGAIPFDPRQPSSLYIPESWQSFSRQEKQASARRFTRSQSLNVVERQAIPEQTTFEQMVARAAALTATPQVDKVVLSRLIDITTDAAIDSGVLLERLIAQNPVSYNFHVPLADGGVLLGASPELLLRKDGERFSSIPLAGSARRQPDEVLDREAGNRLLASEKDRHEHELVTQAMKEVLRERSSELHVPSSPQLITTPTLWHLATPFEGKANSQENALTLACLLHPTPALSGFPHQAATQVIAELEPFDRELFGGIVGWCDSEGNGEWVVTIRCAKLRENQVRLFAGAGIVPASSPLGEWRETGVKLSTMLNVFGLH",Km,[6]; other: EntC,11.93 ± 1.37 µM
